What was measured:
[1] = molecular target: T1, HLA-A*0201 molecule on human T2 cells (human); experiment: T2 cells expressing HLA-A*0201, anti-HLA-A2-PE, FACS
T1 construct: read out with anti-HLA-A2 antibody BB7.2-PE; also called HLA-A2

[2] = molecular target: T1, HLA-A*0201 molecule on human T2 cells; experiment: as above; remark: listed apart in the source
[3] = molecular target: T2, HLA-A*0201 molecule expressed by the human tumoral cell T2 (human); experiment: T2 cell HLA-A2 stabilisation assay, flow cytometry with anti-HLA-A2 BB7.2-PE
T2 construct: MHC class I on T2 cells; The tested peptide is added from outside; Surface HLA-A2 is read with anti-HLA-A2 antibody BB7.2-PE; also called HLA-A2

Binder | mean relative fluorescence intensity at 1.5625 µM peptide [1] | mean relative fluorescence intensity at 3.125 µM peptide [1] | mean relative fluorescence intensity at 6.25 µM peptide [1] | mean relative fluorescence intensity at 25 µM peptide [1] | mean relative fluorescence intensity at 50 µM peptide [1] | mean relative fluorescence intensity at 100 µM peptide [1] | Concentration of peptide that induces 20% of HLA-A2 expression [2] [µM] | In vitro binding affinity (relative to reference peptide HIV pol 589-597) [2] | binding result [3]
LLLSAALSA (Fragment of human CHI3L1) [CHI3L1H] | -1.9 % of HIV peptide | 1 % of HIV peptide | 4.4 % of HIV peptide | 4.9 % of HIV peptide | 14.5 % of HIV peptide | 11.2 % of HIV peptide |  |  | 
YTLGEFLYI [BIRC5-B2] |  | 6.6 % of HIV peptide | 9 % of HIV peptide | 29.6 % of HIV peptide | 54.4 % of HIV peptide | 58 % of HIV peptide | 14.7 | 4.5 | 
ILPFGFILA [peptide 1I9A] |  |  |  |  |  |  |  |  | binds
RLSSYLVEI [FOXM1-B] | 0 % of HIV peptide | 0 % of HIV peptide | 0 % of HIV peptide | 7.6 % of HIV peptide | 21.3 % of HIV peptide | 47.5 % of HIV peptide | 46.7 | 4.6 | 
RVSSYLVPI (Fragment of human FOXM1) [FOXM1-H] | 0 % of HIV peptide | 0 % of HIV peptide | 0 % of HIV peptide | 10.5 % of HIV peptide | 30.7 % of HIV peptide | 83.8 % of HIV peptide | 37.6 | 3.7 | 
FLDSLGFST [TYMS-H2] | 1.6 % of HIV peptide | 4.5 % of HIV peptide | 6.1 % of HIV peptide | 32.5 % of HIV peptide | 37.2 % of HIV peptide | 50.6 % of HIV peptide | 9.5 | 0.8 | 
FLPFGFILV [IL13RA2-B] |  |  |  |  |  |  |  |  | binds
FLPFGFILM [peptide 1F9M] |  |  |  |  |  |  |  |  | binds
WLPFGFILI (Fragment of human IL13RA2) [IL13RA2-H] | 3 % of HIV peptide | 3.7 % of HIV peptide | 9.6 % of HIV peptide | 11.2 % of HIV peptide | 14.2 % of HIV peptide | 26.5 % of HIV peptide |  |  | 
AVFRVLIPV [EZH2-B2] | 0 % of HIV peptide | 0 % of HIV peptide | 0.5 % of HIV peptide | 74.8 % of HIV peptide |  | 112 % of HIV peptide | 8.3 | 1.7 | 
LMDLSTTPL (Fragment of human FOXM1) [FOXM1-H2] | 5.3 % of HIV peptide | 0.9 % of HIV peptide | 19.7 % of HIV peptide | 65.4 % of HIV peptide | 62.5 % of HIV peptide | 77.6 % of HIV peptide | 12.6 | 2.5 | 
LMLGEFLKL [peptide 2M] |  |  |  |  |  |  |  |  | binds

Second part, the binder after the results:

mean relative fluorescence intensity at 1.5625 µM peptide [1] | mean relative fluorescence intensity at 3.125 µM peptide [1] | mean relative fluorescence intensity at 6.25 µM peptide [1] | mean relative fluorescence intensity at 25 µM peptide [1] | mean relative fluorescence intensity at 50 µM peptide [1] | mean relative fluorescence intensity at 100 µM peptide [1] | Concentration of peptide that induces 20% of HLA-A2 expression [2] [µM] | In vitro binding affinity (relative to reference peptide HIV pol 589-597) [2] | binding result [3] | Binder
5.5 % of HIV peptide | 14.4 % of HIV peptide | 28.9 % of HIV peptide | 53.9 % of HIV peptide | 82.6 % of HIV peptide | 94.9 % of HIV peptide | 8.8 | 0.7 |  | FLVEDETVI [EZH2-B]
13.5 % of HIV peptide | 23.9 % of HIV peptide | 44 % of HIV peptide | 45.3 % of HIV peptide | 85 % of HIV peptide | 58.9 % of HIV peptide | 3.6 | 0.9 |  | LLLSAALSV [CHI3L1B]
0 % of HIV peptide | 0.7 % of HIV peptide | 10.6 % of HIV peptide | 40.7 % of HIV peptide | 66 % of HIV peptide | 95.4 % of HIV peptide | 13.3 | 1.1 |  | FMVEDETVL (Fragment of human EZH2) [EZH2-H]
9.4 % of HIV peptide | 8.9 % of HIV peptide |  | 20.9 % of HIV peptide | 29.8 % of HIV peptide | 35 % of HIV peptide | 22.9 | 7 |  | GLLGEFLQI (also called B1RC5-B3) [BIRC5-B3]
10.7 % of HIV peptide | 21.5 % of HIV peptide | 27.5 % of HIV peptide | 61.1 % of HIV peptide | 62 % of HIV peptide | 71.3 % of HIV peptide | 2.7 | 0.2 |  | FLDSLGFSL [TYMS-B2]
2.5 % of HIV peptide | 14.3 % of HIV peptide | 30.2 % of HIV peptide | 36.7 % of HIV peptide | 108 % of HIV peptide | 76.9 % of HIV peptide | 8.6 | 2.2 |  | YLLSAALTI [CHI3L1B3]
 |  |  |  |  |  |  |  | binds | ALPFGFILV [comparative peptide 1A9V]
8.6 % of HIV peptide | 15.3 % of HIV peptide | 26.6 % of HIV peptide | 38.1 % of HIV peptide | 40.4 % of HIV peptide | 50.2 % of HIV peptide | 4.1 | 0.3 |  | VLEELLWFI (Fragment of human TYMS) [TYMS-H]
0 % of HIV peptide | 0 % of HIV peptide | 0 % of HIV peptide | 13.3 % of HIV peptide |  | 78.2 % of HIV peptide | 39.2 | 7.8 |  | SMFRVLIGT (Fragment of human EZH2) [EZH2-H2]
7.2 % of HIV peptide | 12.7 % of HIV peptide | 33.5 % of HIV peptide | 98.2 % of HIV peptide | 91.5 % of HIV peptide | 105 % of HIV peptide | 6.7 | 1.3 |  | LMDLSTTEV [FOXM1-B2]
15.9 % of HIV peptide | 30.4 % of HIV peptide | 36 % of HIV peptide | 49.3 % of HIV peptide | 65.7 % of HIV peptide | 80.9 % of HIV peptide | 1.1 | 0.1 |  | SMEELLWFV [TYMS-B]
12.7 % of HIV peptide | 22.7 % of HIV peptide | 29.2 % of HIV peptide | 53.2 % of HIV peptide | 66.7 % of HIV peptide | 70.3 % of HIV peptide | 3.1 | 0.2 |  | ILDEAYVRV [EGFR-B]
 |  |  |  |  |  |  |  | binds | LTLGEFLKL [BIRC5-H]
 |  |  |  |  |  |  |  | binds | FMLGEFLKL [BIRC5-B1]
